Laboratory results reported in paper PMC3872242 (Journal of molecular biology, 2013).
Square brackets hold non-standard residues; d marks the D form. Ends that are not written are not given here. pS = N[C@@H](COP(=O)(O)O)C(=O)O

Molecular target: T1, Human 14-3-3γ (human, UniProt P61981 2-247)
T1 sequence: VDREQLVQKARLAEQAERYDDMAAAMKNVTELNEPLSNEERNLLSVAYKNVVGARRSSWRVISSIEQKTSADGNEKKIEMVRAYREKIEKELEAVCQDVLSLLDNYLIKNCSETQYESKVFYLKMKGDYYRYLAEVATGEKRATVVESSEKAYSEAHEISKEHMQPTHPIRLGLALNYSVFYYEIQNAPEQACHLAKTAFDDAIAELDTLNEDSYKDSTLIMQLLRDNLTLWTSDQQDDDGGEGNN
Assay: crystal structure

binding result: binds
Binder: MPTPDATTPQAKGFRRAV[pS]ELDAKQAEAIMSPRFIGRRQSLIE [THp-(1-43), Ser19-phosphorylated N-terminal peptide of human tyrosine hydroxylase]
